This assay addresses T1, human IL-17RE (Thr155-Ser451), soluble form (human, UniProt Q8NFR9 155-451).
T1 sequence (looked up): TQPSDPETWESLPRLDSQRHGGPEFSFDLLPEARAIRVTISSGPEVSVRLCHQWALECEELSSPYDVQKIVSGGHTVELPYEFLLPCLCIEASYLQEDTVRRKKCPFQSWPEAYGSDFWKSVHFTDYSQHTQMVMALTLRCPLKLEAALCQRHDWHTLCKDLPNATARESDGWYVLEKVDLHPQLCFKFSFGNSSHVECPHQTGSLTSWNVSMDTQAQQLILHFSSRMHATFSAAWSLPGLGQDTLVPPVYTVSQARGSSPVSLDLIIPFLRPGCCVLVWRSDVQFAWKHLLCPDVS
The assay is described as follows: SEC. (Size exclusion chromatography separates by hydrodynamic size, large species first.)

The source of these data is PMC5551564 (The Journal of Experimental Medicine, 2017).

B1: human IL-17c (residues His19-Val197), soluble form (ligand, UniProt Q9P0M4 19-197, looked up)
chain: HHDPSLRGHPHSHGTPHCYSAEELPLGQAPPHLLARGAKWGQALPVALVSSLEAASHRGRHERPSATTQCPVLRPEEVLEADTHQRSISPWRYRVDTDEDRYPQKLAFAECLCRGCIDARTGRETAALNSVRLLQSLLVLRRRPCSRDGSGLPTPGAFAFHTEFIHVPVGCTCVLPRSV
On to B1, for which the binding result was “binds”.
